These results are taken from article PMC4417169, “Significance of ligand interactions involving Hop2-Mnd1 and the RAD51 and DMC1 recombinases in homologous DNA repair and XX ovarian dysgenesis” (Nucleic Acids Research, 2015).

To fix the notation:
T1: Hop2 (G203N)-Mnd1, MBP-tagged (mouse, UniProt O35047 1-217; Q8K396 1-205, G203N)
T1 construct: Hop2, mouse; Mnd1, mouse; also called the G203N mutant; source: E. coli, purified; not shown: MBP, N-terminal, kept
T1 sequence (looked up) 1: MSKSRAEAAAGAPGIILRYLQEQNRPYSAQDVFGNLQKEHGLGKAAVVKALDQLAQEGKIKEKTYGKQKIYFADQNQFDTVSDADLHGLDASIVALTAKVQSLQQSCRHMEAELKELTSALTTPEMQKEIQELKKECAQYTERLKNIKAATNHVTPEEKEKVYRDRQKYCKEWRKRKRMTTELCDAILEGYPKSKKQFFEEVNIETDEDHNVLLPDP
T1 sequence (looked up) 2: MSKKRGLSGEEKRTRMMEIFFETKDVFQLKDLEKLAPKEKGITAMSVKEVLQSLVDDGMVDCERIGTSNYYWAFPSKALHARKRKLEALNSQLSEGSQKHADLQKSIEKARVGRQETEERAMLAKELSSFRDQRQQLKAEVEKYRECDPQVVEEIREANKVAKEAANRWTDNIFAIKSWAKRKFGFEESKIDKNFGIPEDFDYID

T2: Hop2 (K63A/Y65A/K67A)-Mnd1 (mouse, UniProt O35047 1-217; Q8K396 1-205, K63A | Y65A | K67A)
T2 construct: Hop2, mouse; Mnd1, mouse; also called Hop2-KYK-Mnd1; source: E. coli, purified
T2 sequence (looked up) 1: T1 sequence (looked up) 1 with K63A, Y65A, K67A, N203G
T2 sequence (looked up) 2: T1 sequence (looked up) 2

T3: Hop2-Mnd1 (R64A/Y70A/Y71A) (mouse, UniProt O35047 1-217; Q8K396 1-205, R64A | Y70A | Y71A)
T3 construct: Hop2, mouse; Mnd1, mouse; also called Hop2-Mnd1-RYY; source: E. coli, purified
T3 sequence (looked up) 1: T1 sequence (looked up) 1 with N203G
T3 sequence (looked up) 2: T1 sequence (looked up) 2 with R64A, Y70A, Y71A

T4: Hop2 (R176A)-Mnd1 (mouse, UniProt O35047 1-217; Q8K396 1-205, R176A)
T4 construct: Hop2, mouse; Mnd1, mouse; source: E. coli, purified
T4 sequence (looked up) 1: T1 sequence (looked up) 1 with R176A, N203G
T4 sequence (looked up) 2: T1 sequence (looked up) 2

T5: Hop2-Mnd1 (KYK+RYY) (mouse, UniProt O35047 1-217; Q8K396 1-205, K63A | Y65A | K67A | R64A | Y70A | Y71A)
T5 construct: Hop2, mouse; Mnd1, mouse; also called Hop2-KYK-Mnd1-RYY; Hop2-KYK/Mnd1-RYY; source: E. coli, purified
T5 sequence (looked up) 1: T1 sequence (looked up) 1 with K63A, Y65A, K67A, N203G
T5 sequence (looked up) 2: T1 sequence (looked up) 2 with R64A, Y70A, Y71A

B1: (His)6-tagged Mnd1 (natural protein, mouse, UniProt Q8K396 1-205, looked up)
chain: T1 sequence (looked up) 2
notes: Mnd1, mouse, without Hop2; also called purified Mnd1 alone; source: purified
B2: Hop2^126-217-Mnd1 (complex, mouse)
chain 1: MQKEIQELKKECAQYTERLKNIKAATNHVTPEEKEKVYRDRQKYCKEWRKRKRMTTELCDAILEGYPKSKKQFFEEVGIETDEDHNVLLPDP
chain 2: T1 sequence (looked up) 2
notes: Hop2, mouse, residues 126-217; Mnd1, mouse; source: E. coli, purified
B3: Hop2-Mnd1^100-205 (complex, mouse)
chain 1: T1 sequence (looked up) 1 with N203G
chain 2: HADLQKSIEKARVGRQETEERAMLAKELSSFRDQRQQLKAEVEKYRECDPQVVEEIREANKVAKEAANRWTDNIFAIKSWAKRKFGFEESKIDKNFGIPEDFDYID
notes: Hop2, mouse; Mnd1, mouse, residues 100-205; source: E. coli, purified
B4: human DMC1 (natural protein, UniProt Q14565 1-340, looked up)
chain: MKEDQVVAEEPGFQDEEESLFQDIDLLQKHGINVADIKKLKSVGICTIKGIQMTTRRALCNVKGLSEAKVDKIKEAANKLIEPGFLTAFEYSEKRKMVFHITTGSQEFDKLLGGGIESMAITEAFGEFRTGKTQLSHTLCVTAQLPGAGGYPGGKIIFIDTENTFRPDRLRDIADRFNVDHDAVLDNVLYARAYTSEHQMELLDYVAAKFHEEAGIFKLLIIDSIMALFRVDFSGRGELAERQQKLAQMLSRLQKISEEYNVAVFVTNQMTADPGATMTFQADPKKPIGGHILAHASTTRISLRKGRGELRIAKIYDSPEMPENEATFAITAGGIGDAKE
notes: DMC1, human; source: insect cells infected with a recombinant DMC1 baculovirus, purified
B5: human RAD51 (natural protein, UniProt Q06609 1-339, looked up)
chain: MAMQMQLEANADTSVEEESFGPQPISRLEQCGINANDVKKLEEAGFHTVEAVAYAPKKELINIKGISEAKADKILAEAAKLVPMGFTTATEFHQRRSEIIQITTGSKELDKLLQGGIETGSITEMFGEFRTGKTQICHTLAVTCQLPIDRGGGEGKAMYIDTEGTFRPERLLAVAERYGLSGSDVLDNVAYARAFNTDHQTQLLYQASAMMVESRYALLIVDSATALYRTDYSGRGELSARQMHLARFLRMLLRLADEFGVAVVITNQVVAQVDGAAMFAADPKKPIGGNIIAHASTTRLYLRKGRGETRICKIYDSPCLPEAEAMFAINADGVGDAKD
notes: RAD51, human; source: E. coli, purified

What all share (conditions): both partners purified
In assay [1] the target is B5. The experiment in a line: pull-down; Ni2+-NTA resin captures (His)6-Hop2-Mnd1 or (His)6-Mnd1 (5 uM) incubated with RAD51 (8 uM); buffer A (25 mM Tris-HCl pH 7.5, 10% glycerol, 0.5 mM EDTA, 0.01% Igepal, 10 mM imidazole), 50-250 mM KCl, with or without 2 mM MgCl2 and 2 mM ATP (or other nucleotides); 4 C; SDS-PAGE, Coomassie.
Assay [2] has as its target B5. As to the kind of experiment: pull-down; affinity pulldown of RAD51 with truncation mutants of Hop2-Mnd1 (Supplementary Figure S3b, c); resin and tag not told.
Assay [3] addresses T1, Hop2 (G203N)-Mnd1, MBP-tagged. As to the kind of experiment: pull-down; amylose resin captures MBP-tagged Hop2-Mnd1 or mutant incubated with RAD51 or DMC1; buffer A without imidazole; 4 C; SDS-PAGE, Coomassie.
The target of assay [4] is T2, Hop2 (K63A/Y65A/K67A)-Mnd1. As to the kind of experiment: pull-down; affinity pulldown of RAD51 with the DNA binding mutants of Hop2-Mnd1; only summarized in Table 1; resin and tag not told.
Assay [5] has as its target T3, Hop2-Mnd1 (R64A/Y70A/Y71A). The description is as above.
The target of a further assay is T4, Hop2 (R176A)-Mnd1. The description is as above.
A further assay addresses T5, Hop2-Mnd1 (KYK+RYY). The description is as above.

Positions count from the first letter of the chain named.

As for B1, the binding result with human RAD51 [1] was “binds”.

On to B2, for which the binding result with human RAD51 [2] is “binds”.

On to B3, for which the binding result with human RAD51 [2] is given as “binds”.

Take B4: the binding result in assay [3] is recorded as “binds”.

Consider B5, for which the binding result (in assay [4]; in assay [5]; with Hop2 (R176A)-Mnd1; in the assay with Hop2-Mnd1 (KYK+RYY); in assay [3]) was “binds” in each case.
